Reference: patent US20100151566A1 (published 2010)

B1: scFv 2H1 (scFv)
scFv: QQVQLVQSGAEVKKPGESLKISCKGSGYSFTSYWIGWVRQMPGKGLEWMGIIYPGDSDTRYSPSFQGQVTISADKSISTAYLQWSSLKASDTAMYYCARLVVRDTEIWGQGTMVTVSSAPQAKSSGSGSESKVDQAVVTQEPSLTVSPGGTVTLTCASSIGAVTSGNYPNWFQQRPGQPPRALIYSTSNKHSWTPARFSGSLLGGKAALTLSGAQPEDEAEYYCLLSYSGARPVFGGGTKLTVLGAAAGSEQKLISEEDLNSHHHHHH
notes: Made in E. coli from pACR.1-scFv 2H1, purified by IMAC; also called scFv 2H1 fragment; bacterial scFv 2H1

Experiments:
[1] = target: T1, Isoform 120 of mouse VEGF-A (R&D) (mouse, UniProt Q00731-3 27-146); assay: ELISA on coated antigen (Table 6)
T1 construct: also called isoform 120 of murine VEGF
T1 sequence (looked up): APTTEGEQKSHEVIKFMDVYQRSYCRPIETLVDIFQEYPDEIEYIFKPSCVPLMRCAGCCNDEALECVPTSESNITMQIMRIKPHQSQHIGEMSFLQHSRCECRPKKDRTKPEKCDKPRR

[2] = target: T1, Isoform 120 of mouse VEGF-A (R&D); assay: ELISA on coated antigen (Table 7)
Experimental: The purified Fab fragment was evaluated for its capacity of recognizing human VEGF using an ELISA assay. […] The purified Fab fragment was diluted and incubated for 1 h at 22° C.

[3] = target: B1; assay: phage ELISA on coated scFv 2H1
[4] = target: T1, Isoform 120 of mouse VEGF-A (R&D); assay: phage ELISA; + means OD at least 5 times the negative control
Experimental: The latter was immobilized in a 96-well Maxisorp (Nunc) immunoplate at a concentration of 1 μg/ml in PBS, during 16 h at 4° C. The plate was blocked at 22° C. with PBS-milk 4% during 1 h.
After blocking the plates, the phages purified as described above and diluted in PBS-skimmed milk 4% were added and incubated for 1 h at 22° C. After several washes, the bound phages were detected with anti-M13 peroxidase conjugated antibodies. […] As negative control, a sample of the mixture of phages of the unselected library was used, precipitated as described above.

B1
binding result [1]: no binding (tested: 20 µg/mL)

B2: Fab 2H1-32 (Fab, V domains shown)
VH: QVQLVQSGAEVKKPGESLKISCKGSGYSFTSYWIGWVRQMPGKGLEWMGIIYPGDSDTRYSPSFQGQVTISADKSISTAYLQWSSLKASDTAMYYCARLVVRDTEIWGQGTMVTVSS
VL: QAVVTQEPSLTVSPGGTVTLTCASSIGAVTSGNYPNWFQQRPGQPPRALIYSTSNKHSWTPARFSGSLLGGKAALTLSGAQPEDEAEYYCLLSYSGARPVFGGGTKLTVLG
notes: Made in E. coli, purified by IMAC, purity close to 85%; also called Fab fragment 2H1-32; Fab produced in E. coli
binding result [2]: no binding (tested: 20 µg/mL)

B3: peptide CCRTLMLLQYHR displayed in filamentous phage (peptide)
peptide: CCRTLMLLQYHR
notes: Tested as phage; also called peptide phage clones
binding result [3]: binds

B4: phage clone 2H1-F (scFv)
scFv: QQVQLVQSGAEVKKPGESLKISCKGSGYSFTSYWIGWVRQMPGKGLEWMGIIYPGDSDTRYSPSFQGQVTISADKSISTAYLQWSSLKASDTAMYYCARLVVRDTEIWGQGTMVTVSSAPQAKSSGSGSESKVDQAVVTQEPSLTVSPGGTVTLTCASSIGAVTSGNYPNWFQQRPGQPPRALIYSTSNKHSWTPARFSGSLLGGKAALTLSGAQPEDEAEYYCLLSYSGARPVFGGGTKLTVLG
modifications: Displayed on filamentous phage, fused to a coat protein that the letters do not carry.
notes: Tested as phage; also called scFv 2H1-F; original phage scFv (2H1-F); not shown: phage coat protein of the phagemid display format, with any tag or junction residues before it
binding result [4]: no binding
